The data set is described as follows: label from the status in PepcDB records.

Turning to “MTWLPFIIIIPLFGAFSMPIVSLLKGKAKEIWATIISFTTLMVGIQVFREVWNRGTIVYALGSETPFGKANFPIRIVWEVDKFGAIMVLIITLVSFLAVLYSIEYMKHDTGLEKYYTLILILELGMLGIAITGDIFNFYVFLEIMSIASYALVAFRNDTWEAIEAGIKYMFVGSLASSLVLLGIALLYGQYGTLTMGYLAVKMSENPTIVAKIALSLFLGGLLFKSGASPVHMWLADAHPAAPSSISAMLSGLVIKVGGIYAIARVVFSIFLPAINLATVGWLVIIFACITLIVGNAMAVVQEDMKRLLAYSSVGQIGYILLGLGIGMVAYGSKIGELALAGAIYHIVNHAMMKALLFLVAGAVLHELGTRNLNELSGLAKTMPKTTFAFLIGAAAIVGMPPLNGFASKWLIYESSALFNPIIGSIAIIGTAFCTAAYVRVLFTFFGRPNEKVMRAKDPGALMLIPMFILVIAIILMGIFPWQISDKIMIPAARNLWDITSYVMTLMGGG”, the protein production entry is “failed”.
As to “MTYEAGCGLIKALEDPDNRVRQRAVKTLGKRGNPDVLEDLMEALKDSRQPVQEAASEALRKIIAASDSVPVLVKALDATDRNVRKAAIEALWKAGTPEAIPPLLRELDDADWYLRSRAADALADIASPEAALGLIKVMDIHDSPVKKIIVNALGKIGTVEAVEGLVKALEDLEHHHHHH”, the protein production entry is “failed”.
For the sequence “MTYFASDFQDLDNSGNIENFIRCLELQQSLDLYKYYKQKTFEKMQLKPGDSVLEVGCGTGNDALLLANYVGETGKVTAVDRSQFMLDQARERAKNSTTKFEFVLADAEQLPFPGANFTAARVDRTLQHIAQPQKAIAEMARVVQSNGWVVAFEPDWETLVIDSDQRGVTRAITNFWCDNFPSGWVGRYLFKYFRQAGLTDIAVDPITICLTEFELADKILDLSRTVEKISEQGTISQNDLTLWFKAIDQNDQAGEFFCAFTAFLVRGRKP”, the protein production entry was “failed”.
The result for “MTYKITTSESKKEYLYMGSGDTRGESSLVAKPIEIILNKLPHAILAQQQFQKYITSPIYRYLSKLLLFREVAWPESTKDTQKGQVGIFSFQNNYADSATTFRILAHLDEHGYPLPNGAAEKNLPSLFEGFKATVSIIQQRLLLDNVDGATNSDKEKYVQLPDINTGFVNKTYSRIDLTHLLEDVETNVENLSINKTLEMDELTRLDSMINELESRKLKILERVKHIDSKSTNLENDVTLIKDRINFIEEYNLEADREQSLRKQMEEERSSEASSFTQNEEAISSLCDVESKDTRLKDFYKMPHEKSHDKNRQIISETYSRNTTAFRMTIPHGEHGNSITALDFDTPWGTLCSSSYQDRIVKVWDLNHGIQVGELPGHLATVNCMQIDKKNYNMLITGSKDATLKLWDLNLSREIYLDHSPLKEKTEEIVTPCIHNFELHKDEITALSFDSEALVSGSRDKKIFHWDLTTGKCIQQLDLIFTPTHSDIKMPARSLNNGACLLGTEAPMIGALQCYNSALATGTKDGIVRLWDLRVGKPVRLLEGHTDGITSLKFDSEKLVTGSMDNSVRIWDLRTSSILDVIAYDLPVSSLDFDGKLITVGANEGGVNVFNMERDEHWMTPEPPHSLDGDELSRRIAIVKYKDGFLINGHNDGDINVWTL” reads “failed”; that for “MTYLVTGATGGLGGYALNYLKELVPMSDIYALVRSKEKGADLKAAGFNIRVGDYSDAESMKQAFAGIDRVLFVSGAPGNRQVEHENVINAAKKAGVSYIAYTSFAGADKSTSALAEDHFFTEKVIEKSGIAHTFLRNNWYFENEMPMIGGALSAGKFVYAAENGKVGWALKREYAEVAAKAVAGAGFPEILELSGPLMTYEELTKALKEATGKDFDVISSDDKGFVENLVSVGLPQPVAEMFLSFQHDIKNDQLDVTSDDFEKALGKPLTNRVDALRELLKLEHHHHHH”, “not failed”.
In the case of “MTYLVTGATGGLGGYALNYLKELVPMTDIYALVRSEEKGADLKAAGFNIRIGDYSDAESMKQAFAGIDRVLFVSGAPGNRQVEHENVVNTAKEAGVSYIAYTSFADADNSTSALAADHIFTEKVIEKSGIEHTFLRNNWYFENEMPMIGGALNGGKFVYAAGNGKTGWALKREYAEVAAKAVAGARFPEILELSGPVMTYAELTEALKEATGKDFEVISSDDKGFVENLVNVGMPQPVAEMFLSFQHDIKNNQLDVTSGDFEKALGKPLTNRVDALRELLQ”, the protein production entry is given as “failed”.
Turning to “MVADKSKKSKIEEKGEEENLEQIDAELVLSIEKLQEIQDDLEKINEKASDEVLEVEQKYNVIRKPVYDKRNEVIQSIPGFWMTAFLSHPALGDLLTEEDQKIFKYLNSLEVEDAKDVKSGYSITFHFTSNPFFEDAKLTKTFTFLEEGTTKITATPIKWKEGKGLPNGVNHDDKKGNKRALPEESFFTWFTDAQHKEDAGDEIHDEVADIIKEDLWSNPLTYFNNDADEEDFDGDDDGDEEGEEDDDDEEEEDGEE”, the protein production result is “failed”.
As to “MVAKQLSIFLENKSGRLTEVTEVLAKENINLSALCIAENADFGILRGIVSDPDKAYKALKDNHFAVNITDVVGISCPNVPGALAKVLGFLSAEGVFIEYMYSFANNNVANVVIRPSNMDKCIEVLKEKKVDLLAASDLYKL”, the protein production result was “not failed”.
Consider “MVAQLPEPIKIVRRAGDVRIHTFISAFTDDNIANATHIIEGRNKLVLVDGQFLVPYALQFRAYADSLGKEIDRIYLSHRHPDHWFGLGAAFSDIPIHALSETKEFLRQHGQDSLNDHWKLGNLAPKTLVIPEKTVRAGHEIIDGVKYVFDEVVDTEIDFLLTIGLPDVGVFIAQDLIYSGTHLYLTKYMEHWIGVLQGMLLSDYELFLPGHGFPADKNEVAKNIEYLSVAIEAAGHGLTNDAFKRFLLERFPERKCPGIFDIYIPRLFDNASEF”, for which the protein production entry is listed as “failed”.
As for “MVAVENVVFVFVAGLLTALATGLGAIPFFLVDEFSDRWNVLLWGLASGIMVAASLFGLVREGLAYGSPVLLVPGVLAGVGLVAVAHELLDDFDQSPKQFEQADFTKLLLILGILTVHSFPEGVAVGVSFAELGLEAATPESAVGIVGVSVPLLAVFMTVAISIHNIPEGTAIAIPLRSLGVSEWKMVWWAVFSSLPQPVGAVIAYYFVTLAKAFLPFGFGFAAGAMVYLVLTEFVPEALEYGDGLPGGGKRELLTGIAVGVLAMVPLAFV”, the protein production result was “failed”.
Regarding “MVAVRSAHLNTEGEFVPDAWIASLGIASQQSCERLAETWRYCEQQTQNQPDASLLLWRGIEMVEILSTLSMDNDSMRAALLFPLADANVVDEATLEAAFGKNIVDLVHGVRDMDAIRQLKATQNDSDASEQVDNIRRMLLAMVEDFRCVVIKLAERIAHLREVKDAPEEERVLAAKECTNIYAPLANRLGIGQLKWELEDFCFRYLHPDEYKKIAKLLHERRIDRAQYIDDFVKTLRDAMKEEGVQAEIYGRPKHIYSIWRKMQKKALSFDELFDVRAVRIVVERLQDCYGALGIVHTHYRHMPDEFDDYVANPKPNGYQSIHTVVLGPSGKTLEIQIRTRQMHEDAELGVAAHWKYKEGTAVGGRSGYEGRIAWLRKLLAWQEEVSDSNDVLDEVRSQVFDDRVYVFTPKGDVVDLPAGSTPLDFAYHIHSDIGHRCIGAKIGGRIVPFTYQLHMGDQIEIITQKQPNPSRDWLNPNLGYITTSRGRSKIQNWFRKQDRDKNILAGRQILDDELAHLGVSLKAAEKLLLPRYNVNSLDELLAAIGGGDVRLNQMVNFLQSQLKQPSAEELDREALRQLTQKTHQPPARSNNKDNGRVVVEGVGNLMHHIARCCQPIPGDEITGFITRGRGISIHRADCEQLDELRASSPERIVDAVWGESYSSGYSLVVRVIANDRSGLLRDITTILANEKVNVLGVASRSDTKQQLATIDMDIEIYNLQVLGRVLAKLNQLPDVIDARRQQGA”, the protein production entry was “failed”.
Take “MVDELFCPQCGMLKRRCKCRKRSIRQRNLELLKKVGYKEFLLPLFDTDDEIVLYKVLRPFREKPTEELDFLPSELASCLRKRGIGRLYPFQKEAMIRLMEGRDVVITAPTGFGKTEAFAVPMLWRALHGGKAMVFYPTKALARDQEEKIKFYTSSLGLRAVRFDGDSGREERRAVLSGKCDIILTNPDMVDYHLRNTPAFRRICRELSFIAVDELHTYTGVLGSNMHYLVKRLSRFAEFQIACASATLSNAAEFAEELFDRDFVLVSGEHRKGTLHLIFRYTPSLYSAVREIVTALRNRKIIVFGNSYKSVETINLILRRHGLKSAIHKSGLPKEVREEVEAKFKRGEINIVVSTPTLELGVDIGDVDVVVSELVPYGQMIQRVGRAGRKGQESVGVVILREDDSISTYYRTKPEDYFKEEANGYVERHNEEVMKFQLISMCIEKPVRLEELDRQSAEIMQKLQAQGIVVEREGAFHPTAKAIELSRAFSFRGIGDAVKIYHDGKYIGERALPIAVKELFPGSILVHNGVRYRTVELDLKRLRAEVVELDYGNEITDPLYMTIPRIIEVEDEIEEPVNAVYCSIEINYLVHGYIERDVFDRERKAFHYLDEPVSYTFKTKGFLFSAPFPDPADYEDYYAGSFHALEHVIIETTDAITGGGSREMGGISVPEGDIFVYDASVGGSGLSKLLFKRLRRAFEISKTILESCDCGRVDGCPKCTYSYQCGNNNQPLNRIGALNIAEKVIKGVKRKTDWRKYTDVIEIRYFPLEHHHHHH”: the protein production result was “failed”.
Consider “MVDQSAVGRRFTPVTAHVEAGRLRYFLDTLGETNPVYRDAAAAKVEGFAAPPVPPTYLFCLEMLDNERPFEFLTALEIDLGRVLHGEQSFTYHAPVMVGDTLTFSPQVTSVTDKKGGAMTLIGVATAVTNQHGVHVADTTRTIVVRNGLEHHHHHH”, for which the protein production entry is listed as “not failed”.
As for “MVDVLWDEIQNLELGQDYPTLFIPNEAYVMVEDRNRLSLIARPLLPRVQNFNAVINALPRAWGLTAHVHGRILDATYVQLLFQTEIYLLSVQRREVWLFNNWFVASQRWEAAPSLNFVTTIDLWVQMRGIPILYVFEKTELEIAQELGEIISLDFHDATSTQIAYIRVRVRFGITDRLRFFQRITFESGETALIRFQYERLRRIYSCFRFTHNLNYYPYRQRFQSIDRERAVFRDSVLRSSFNSQSQMTDSSLQVPLHPPPRVPSSGDAITSGIMRVFEVGESSRGVQDGESHNNMNLGESSKRKNLVILQRDKESRQHKQQETEQRMGGILKPPKKR”, the protein production entry is “not failed”.
As for “MVEFLNKKKKSAQRPINLNGSFIFILILTFEFERRVKVDTADIFQRTMMLIGEDGLKKLSNVNIAVCGLGGVGSFAFEALVRCGIQNFVILDKDRVSVSNLNRQLIATVSNIGKSKVDIAYERALDINPFVNVVKVQKEINPENVEELLGNTKIDYIVDAIDDVSAKIALIKFAISRGIKIISSMGMGNRLNPSLLRISDIYSTKNCPLAKKIRSILRKEGIKKLKVVYSEEKPLKPDYKFLKEKTQKAHVPGSISFVPPVAGFLMAYEVVKDLLGW”, the protein production result is “failed”.
The value for “MVEIEYRKTRIKLGDTDLVYEPAEDSFLLADAALKDAKPGMRILEIGTGSGFVSSVLLTNLKEIYLVATEINPHAARCAKMNGVKVIRTDLFKGIKSKNPENLFDLILFNPPYLPTSEEEKVPGWLNYAFDGGISGRDTLDRFLDEVRDYLKLGGEILVLISSITGLDAVKAKMEKLGFEVEVVARKKVSFEELMVVKGKLL” was “failed”; that for “MVEIIIPVGPNDKLEWVKRSVNSALLQSVDKVIIYDNSERADIYNFFQELKDKLVYIKDKRMTKVNMARLRNKMLSLASDKYVIMLDSDVVIPKNYSNNIINKLERGVAYTWIHYAYSEEEIEKPLSISENNPNLGCAGLNLEVIKRIGYFDERYERDEDVWLYAKLKKTGYKVEPAEGRCLHLNKVHARLNLSSSVAEARRNLWRSKYDIMLMFDGLTDFTFLTGYSYYGSYYILAILSVIFHPLTFLYLPLIGYGVYYYKGPKKYLLNLIPGLSLAISFPYGLGYNLIQKLK” was “failed”; that for “MVELEKEKIVWIAIILLIIFLVWETLKDLIAPIVFGMAASYIAYPFHIKLSKKVGKRNSVLILSGILSIFSLIFFVGVTLWITDTLKNLYNYLDAFFSWLSTLNVPGFLSSLFDALATSFPEKLRSILLQYTLSLPKLALQLIVFLAVFYATLLNADFLAKEIYELLPLTNRELGEKMIEKVKDTVDAILKTWLFFSVVKGIFLALGFYLFKISNVAGSIAAGVLCIVLELLPVVGGWIMWLAGAIILLRRSMLLAIIFAIYGIITISPIPDYFLKPKFAKERAKVSSVVALVGIFGGWIAFGAVGIILGPIAIGLLLALIDAWREIGTKQPSKAHRSQDA” was “failed”.
